Data from patent CN114685663A (UNIV SOUTHWEST, dated 2022).

Key:
rSLY D4 = molecular target: T1, rSLY D4 (猪链球菌 (Streptococcus suis)); assay: Western blot
T1 construct: also called SLY D4结构域
T1 chain: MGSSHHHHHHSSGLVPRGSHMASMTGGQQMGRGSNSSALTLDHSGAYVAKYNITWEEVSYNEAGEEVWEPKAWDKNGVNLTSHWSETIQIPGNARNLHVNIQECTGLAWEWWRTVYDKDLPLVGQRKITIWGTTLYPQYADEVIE

rLLO D1-3 = molecular target: T2, rLLO D1-3 (单增李斯特菌 (Listeria monocytogenes)); assay: Western blot
T2 construct: also called LLO D1-3结构域
T2 chain: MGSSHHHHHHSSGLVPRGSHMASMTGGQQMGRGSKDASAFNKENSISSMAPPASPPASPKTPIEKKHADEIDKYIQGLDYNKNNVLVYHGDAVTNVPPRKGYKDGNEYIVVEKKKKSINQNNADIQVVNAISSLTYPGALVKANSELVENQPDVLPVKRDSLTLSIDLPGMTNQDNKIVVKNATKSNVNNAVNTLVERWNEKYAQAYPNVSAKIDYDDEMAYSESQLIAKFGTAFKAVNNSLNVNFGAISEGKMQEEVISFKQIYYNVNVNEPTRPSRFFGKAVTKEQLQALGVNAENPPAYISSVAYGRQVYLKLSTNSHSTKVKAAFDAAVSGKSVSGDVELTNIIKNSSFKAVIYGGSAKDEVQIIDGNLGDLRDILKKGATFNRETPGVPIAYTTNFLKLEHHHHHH

rLLO D4 = molecular target: T3, rLLO D4 (单增李斯特菌 (Listeria monocytogenes)); assay: Western blot
T3 construct: also called LLO D4结构域

[1] = molecular target: 猪溶素 (Suilysin, SLY), recombinant rSLY (猪链球菌 (Streptococcus suis))
[2] = molecular target: 李斯特菌溶血素 (Listeriolysin O, LLO), recombinant rLLO (单增李斯特菌 (Listeria monocytogenes))
[3] = molecular target: 肺炎链球菌溶血素 (Pneumolysin O, PLY), recombinant rPLY (肺炎链球菌 (Streptococcus pneumoniae))

B1: 抗胆固醇依赖性细胞溶素的抗体 (antibody, V domains shown)
VH: QVQLQQSGPGLVKPSQTLSLTCAISGDSVSSNSVAWNWIRQSPSRGLEWLGRTYYRSKWYNDYAVSVKSRITINPDTSKNQFSLQLNSVTPEDTAVYYCVRVDNSGWGNWGQGTLVTVSS
VL: EIVMTQSPLSSPVTLGQPASISCRSSQSLVHRDGNTYLSWLRQRPGQPPRLLIYKISNRFSGVPDRFSGSGAGTDFTLKISRVEAEDVGIYYCMQATQFPTFGGGTKVEIKR
notes: also called 胆固醇依赖性细胞溶素抗体; 抗胆固醇依赖性细胞溶素抗体
binding result (rSLY D4): no binding (tested: 抗体1:1000稀释)
binding result (rLLO D1-3): binds
binding result (rLLO D4): no binding (tested: 抗体1:1000稀释)
EC50 [1]: 0.00018 µM
EC50 [2]: 44.9 µM
EC50 [3]: 49.9 µM
